Assay results published in patent US5393869A, “Parathyroid hormone derivatives” (Takeda Chemical Industries, Ltd., priority 1990, dated 1995).
No end group written: not given here.

Molecular target: PTH receptor on MC3T3-EI cells (mouse cranial bone-derived osteoblast-like cell strain) (mouse) (UniProt P41593)
Assay: not given
Details: not given

Going from “(3-(2-naphthyl)-Ala^11)hPTH(1-34)NH2 (from UniProt P01270) (peptide)” to “(3-(2-naphthyl)-D-Ala^12)hPTH(1-34)NH2 (from UniProt P01270) (peptide)”, the cAMP production in MC3T3-EI cells, relative activity to hPTH(1-34) (relative activity to hPTH(1-34)) falls from 1.7 to 0.9.

Going from “(Aib^1)hPTH(1-34) (from UniProt P01270) (peptide)” to “(Arg^19,21)hPTH(1-34)NH2 (from UniProt P01270) (peptide)”, the cAMP production in MC3T3-EI cells, relative activity to hPTH(1-34) (relative activity to hPTH(1-34)) falls from 1.7 to 0.9.

Going from “(Arg^19,21,2-(1,3-dithiolan-2-yl)-Trp^23)hPTH(1-34)NH2 (from UniProt P01270) (peptide)” to “(D-Leu^12)hPTH(1-34)NH2 (from UniProt P01270) (peptide)”, the cAMP production in MC3T3-EI cells, relative activity to hPTH(1-34) (relative activity to hPTH(1-34)) falls from 1.7 to 0.5.

Going from “(D-Ser^12)hPTH(1-34)NH2 (from UniProt P01270) (peptide)” to “(Gln^27)hPTH(1-34) (from UniProt P01270) (peptide)”, the cAMP production in MC3T3-EI cells, relative activity to hPTH(1-34) (relative activity to hPTH(1-34)) rises from 0.8 to 2.5.

Going from “(His^25)hPTH(1-34) (from UniProt P01270) (peptide)” to “(His^26)hPTH(1-34)NH2 (from UniProt P01270) (peptide)”, the cAMP production in MC3T3-EI cells, relative activity to hPTH(1-34) (relative activity to hPTH(1-34)) falls from 1 to 0.9.

Compared with “(Leu^8)hPTH(1-34)NH2 (from UniProt P01270) (peptide)”, “(Leu^8, Phe^11,Leu^18)hPTH(1-34)NH2 (from UniProt P01270) (peptide)” is higher in cAMP production in MC3T3-EI cells, relative activity to hPTH(1-34) (relative activity to hPTH(1-34)): 0.5 for the first, 0.9 for the second.

Compared with “(Leu^18)hPTH(1-34) (from UniProt P01270) (peptide)”, “(Leu^27)hPTH(1-34) (from UniProt P01270) (peptide)” is higher in cAMP production in MC3T3-EI cells, relative activity to hPTH(1-34) (relative activity to hPTH(1-34)): 0.4 for the first, 1.2 for the second.

“(Lys^11)hPTH(1-34)NH2 (from UniProt P01270) (peptide)” and “(Phe^11)hPTH(1-34) (from UniProt P01270) (peptide)” are the same in cAMP production in MC3T3-EI cells, relative activity to hPTH(1-34) (relative activity to hPTH(1-34)): 1.1 for the first, 1.1 for the second.

Going from “(Phe^11)hPTH(1-34)NH2 (from UniProt P01270) (peptide)” to “(Ser^11)hPTH(1-34)NH2 (from UniProt P01270) (peptide)”, the cAMP production in MC3T3-EI cells, relative activity to hPTH(1-34) (relative activity to hPTH(1-34)) falls from 1.3 to 0.8.

Molecular target: T1, PTH receptor (Mus musculus, UniProt P41593)
T1 construct: a mouse cranial bone-derived osteoblast-like cell strain, MC3T3-EI cells, cultivated on a 96-well multiplate; endogenous in cells; host or cells: MC3T3-E1 mouse osteoblast-like cells
T1 sequence (P41593 27-591): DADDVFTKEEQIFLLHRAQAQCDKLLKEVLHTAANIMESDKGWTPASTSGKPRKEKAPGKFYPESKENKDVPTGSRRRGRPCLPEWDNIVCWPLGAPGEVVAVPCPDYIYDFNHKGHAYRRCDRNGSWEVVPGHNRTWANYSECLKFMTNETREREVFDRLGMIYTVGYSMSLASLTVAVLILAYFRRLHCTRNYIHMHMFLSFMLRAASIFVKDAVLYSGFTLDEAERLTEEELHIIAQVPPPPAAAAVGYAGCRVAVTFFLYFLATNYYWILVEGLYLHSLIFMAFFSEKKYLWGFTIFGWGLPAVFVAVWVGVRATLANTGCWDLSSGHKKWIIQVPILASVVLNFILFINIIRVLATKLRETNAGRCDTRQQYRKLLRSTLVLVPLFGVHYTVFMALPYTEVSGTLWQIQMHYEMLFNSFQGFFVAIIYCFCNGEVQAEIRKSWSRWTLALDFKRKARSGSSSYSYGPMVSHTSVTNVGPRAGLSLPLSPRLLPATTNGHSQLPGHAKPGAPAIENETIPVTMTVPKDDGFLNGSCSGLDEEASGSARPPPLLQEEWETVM
Assay: cAMP production by PTH (1-34) analogues in MC3T3-EI osteoblast-like cells
Type: cell-based
Details: cAMP production, 0.01-100 nM analogue, room temperature 30 minutes, hPTH(1-34) = 1.00
Method: The biological activity of the peptide analogues was evaluated by a modified version of the method reported by Shigeno et al. in The Journal of Biological Chemistry 263, 18369-18377 (1988). A culture solution (Hank's solution, containing 20 mM N-2-hydroxyethylpiperazine-N'-2-ethanesulfonic acid (HEPES), 0.1% bovine serum albumin and 0.5 mM isobutylmethyl-xanthine) containing 0.01, 0.1, 1, 10 or 100 nM analogue was added in an amount of 100 μto a mouse cranial bone-derived osteoblast-like cell strain, MC3T3-EI cells, cultivated on a 96-well multiplate (Nunclon, Nunc), followed by reaction at room temperature for 30 minutes. After addition of 100 μof 0.2N hydrochloric acid, the mixture was immersed in boiling water for 2.5 minutes, and cyclic adenosine monophosphate (cAMP) produced by a PTH receptor was extracted from the cells. The total cAMP in the culture solution and the cells was assayed using a commercial radioimmunoassay kit (cyclic AMP [^125 I] kit "Du Pont-Daiichi", Daiichi Kagaku Yakuhin).

Going from CC[C@H](C)[C@H](NC(=O)[C@H](CCC(=O)O)NC(=O)[C@H](CO)NC(=O)[C@@H](NC(=O)[C@@H](N)CO)C(C)C)C(=O)N[C@@H](CCC(N)=O)C(=O)N[C@@H](CC(C)C)C(=O)N[C@@H](CCSC)C(=O)N[C@@H](Cc1c[nH]cn1)C(=O)N[C@@H](CC(N)=O)C(=O)N[C@@H](Cc1ccccc1)C(=O)NCC(=O)N[C@@H](CCCCN)C(=O)N[C@@H](Cc1c[nH]cn1)C(=O)N[C@@H](CC(C)C)C(=O)N[C@@H](CC(N)=O)C(=O)N[C@@H](CO)C(=O)N[C@@H](CCSC)C(=O)N[C@@H](CCC(=O)O)C(=O)N[C@@H](CCCNC(=N)N)C(=O)N[C@H](C(=O)N[C@@H](CCC(=O)O)C(=O)N[C@@H](Cc1c[nH]c2ccccc12)C(=O)N[C@@H](CC(C)C)C(=O)N[C@@H](CCCNC(=N)N)C(=O)N[C@@H](CCCCN)C(=O)N[C@@H](CCCCN)C(=O)N[C@@H](CC(C)C)C(=O)N[C@@H](CCC(N)=O)C(=O)N[C@@H](CC(=O)O)C(=O)N[C@H](C(=O)N[C@@H](Cc1c[nH]cn1)C(=O)N[C@@H](CC(N)=O)C(=O)N[C@@H](Cc1ccccc1)C(N)=O)C(C)C)C(C)C [[Phe^11] hPTH (1-34)NH2, (Phe^11)hPTH(1-34)NH2] to CC[C@H](C)[C@H](NC(=O)[C@H](CCC(=O)O)NC(=O)[C@H](CO)NC(=O)[C@@H](NC(=O)[C@@H](N)CO)C(C)C)C(=O)N[C@@H](CCC(N)=O)C(=O)N[C@@H](CC(C)C)C(=O)N[C@@H](CCSC)C(=O)N[C@@H](Cc1c[nH]cn1)C(=O)N[C@@H](CC(N)=O)C(=O)N[C@@H](CO)C(=O)NCC(=O)N[C@@H](CCCCN)C(=O)N[C@@H](Cc1c[nH]cn1)C(=O)N[C@@H](CC(C)C)C(=O)N[C@@H](CC(N)=O)C(=O)N[C@@H](CO)C(=O)N[C@@H](CCSC)C(=O)N[C@@H](CCC(=O)O)C(=O)N[C@@H](CCCNC(=N)N)C(=O)N[C@H](C(=O)N[C@@H](CCC(=O)O)C(=O)N[C@@H](Cc1c[nH]c2ccccc12)C(=O)N[C@@H](CC(C)C)C(=O)N[C@@H](CCCNC(=N)N)C(=O)N[C@@H](CCCCN)C(=O)N[C@@H](CCCCN)C(=O)N[C@@H](CC(C)C)C(=O)N[C@@H](CCC(N)=O)C(=O)N[C@@H](CC(=O)O)C(=O)N[C@H](C(=O)N[C@@H](Cc1c[nH]cn1)C(=O)N[C@@H](CC(N)=O)C(=O)N[C@@H](Cc1ccccc1)C(N)=O)C(C)C)C(C)C [[Ser^11] hPTH (1-34)NH2, (Ser^11)hPTH(1-34)NH2], the “Biological Activity (Represented by Relative Activity to hPTH(1-34))” value falls from 1.3 to 0.8.

Going from CC[C@H](C)[C@H](NC(=O)[C@H](CCC(=O)O)NC(=O)[C@H](CO)NC(=O)[C@@H](NC(=O)[C@@H](N)CO)C(C)C)C(=O)N[C@@H](CCC(N)=O)C(=O)N[C@@H](CC(C)C)C(=O)N[C@@H](CCSC)C(=O)N[C@@H](Cc1c[nH]cn1)C(=O)N[C@@H](CC(N)=O)C(=O)N[C@@H](CC(C)C)C(=O)NCC(=O)N[C@@H](CCCCN)C(=O)N[C@@H](Cc1c[nH]cn1)C(=O)N[C@@H](CC(C)C)C(=O)N[C@@H](CC(N)=O)C(=O)N[C@@H](CO)C(=O)N[C@@H](CCSC)C(=O)N[C@@H](CCC(=O)O)C(=O)N[C@@H](CCCNC(=N)N)C(=O)N[C@H](C(=O)N[C@@H](CCC(=O)O)C(=O)N[C@@H](Cc1c[nH]c2ccccc12)C(=O)N[C@@H](CC(C)C)C(=O)N[C@@H](CCCNC(=N)N)C(=O)N[C@@H](CCCCN)C(=O)N[C@@H](CCCCN)C(=O)N[C@@H](CC(C)C)C(=O)N[C@@H](CCC(N)=O)C(=O)N[C@@H](CC(=O)O)C(=O)N[C@H](C(=O)N[C@@H](Cc1c[nH]cn1)C(=O)N[C@@H](CC(N)=O)C(=O)N[C@@H](Cc1ccccc1)C(=O)O)C(C)C)C(C)C [hPTH (1-34), hPTH(1-34), reference compound] to “(Arg^19,21)hPTH(1-34)NH2 [[Arg^13, 21] hPTH (1-34)NH2]”, the “Biological Activity (Represented by Relative Activity to hPTH(1-34))” value falls from 1.00 to 0.9.

“SVSEIQLLHNFGKHLNSLERVEWLRKKLQDVHNF-NH2 [[Leu^8, Phe^11, Leu^18] hPTH (1-34)NH2, (Leu^8, Phe^11,Leu^18)hPTH(1-34)NH2]” was tested, and the “Biological Activity (Represented by Relative Activity to hPTH(1-34))” value was 0.9.

Same assay, conditions: human PTH (1-34) added as a standard, 0.01-100 nM

With CC[C@H](C)[C@H](NC(=O)[C@H](CCC(=O)O)NC(=O)[C@H](CO)NC(=O)[C@@H](NC(=O)[C@@H](N)CO)C(C)C)C(=O)N[C@@H](CCC(N)=O)C(=O)N[C@@H](CC(C)C)C(=O)N[C@@H](CCSC)C(=O)N[C@@H](Cc1c[nH]cn1)C(=O)N[C@@H](CC(N)=O)C(=O)N[C@@H](CC(C)C)C(=O)NCC(=O)N[C@@H](CCCCN)C(=O)N[C@@H](Cc1c[nH]cn1)C(=O)N[C@@H](CC(C)C)C(=O)N[C@@H](CC(N)=O)C(=O)N[C@@H](CO)C(=O)N[C@@H](CCSC)C(=O)N[C@@H](CCC(=O)O)C(=O)N[C@@H](CCCNC(=N)N)C(=O)N[C@H](C(=O)N[C@@H](CCC(=O)O)C(=O)N[C@@H](Cc1c[nH]c2ccccc12)C(=O)N[C@@H](CC(C)C)C(=O)N[C@@H](CCCNC(=N)N)C(=O)N[C@@H](CCCCN)C(=O)N[C@@H](CCCCN)C(=O)N[C@@H](CC(C)C)C(=O)N[C@@H](CCC(N)=O)C(=O)N[C@@H](CC(=O)O)C(=O)N[C@H](C(=O)N[C@@H](Cc1c[nH]cn1)C(=O)N[C@@H](CC(N)=O)C(=O)N[C@@H](Cc1ccccc1)C(=O)O)C(C)C)C(C)C [hPTH (1-34), hPTH(1-34), reference compound] the “cAMP production of the standard” value was “increase in cAMP production depending on the concentration”.
